The experiment concerns the target Recombinant human IL-18 (Peprotech 200-18) (human) (UniProt Q14116). The experiment can be described thus: cell-based or functional assay.

recombinant IL-18BP/Fc chimera (R&D Systems, 119-BP), sequence (O95998 31-194, change not shown): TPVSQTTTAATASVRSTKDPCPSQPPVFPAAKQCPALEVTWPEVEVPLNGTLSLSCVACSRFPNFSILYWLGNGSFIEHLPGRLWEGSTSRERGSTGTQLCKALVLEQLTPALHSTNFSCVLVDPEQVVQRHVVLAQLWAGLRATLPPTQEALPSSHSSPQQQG
Recombinant human IL-18 (Peprotech 200-18) (human), sequence (Q14116 37-193 limits assumed): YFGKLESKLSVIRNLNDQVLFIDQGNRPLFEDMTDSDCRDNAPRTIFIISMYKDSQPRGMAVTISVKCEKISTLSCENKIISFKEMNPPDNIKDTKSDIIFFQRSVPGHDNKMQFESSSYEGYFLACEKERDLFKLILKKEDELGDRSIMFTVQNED

As to “recombinant IL-18BP/Fc chimera (R&D Systems, 119-BP) (from UniProt O95998 31-194) (Fc fusion)”, the ED50, inhibition of INF-γ release by KG1 cells turned out to be 0.52 nM.

The values above are taken from patent publication US20110014201A1.
